From publication PMC12197737
Where “and” joins values, the source holds several entries; their conditions need not be identical. Equal entries are not always repeated.

Molecular target: recombinant TSWV-N protein (tomato spotted wilt virus nucleocapsid N protein) (Tomato spotted wilt virus (TSWV))
Test: cross-linking

Substance: recombinant TSWV-N protein (tomato spotted wilt virus nucleocapsid N protein) (natural protein)
- stoichiometry N: 2 and 3
